In the series the target is WT His-tagged PCNA (recombinant Xenopus PCNA) (UniProt P18248).
Chain of WT His-tagged PCNA (recombinant Xenopus PCNA) (P18248 whole entry): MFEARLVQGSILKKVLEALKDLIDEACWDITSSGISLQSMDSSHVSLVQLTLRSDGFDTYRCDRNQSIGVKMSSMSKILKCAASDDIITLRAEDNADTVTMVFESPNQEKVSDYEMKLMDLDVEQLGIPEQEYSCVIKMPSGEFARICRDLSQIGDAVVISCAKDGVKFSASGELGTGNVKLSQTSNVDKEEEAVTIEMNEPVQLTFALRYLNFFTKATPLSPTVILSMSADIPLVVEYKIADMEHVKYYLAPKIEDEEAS

“C470A GST-APE2 (mutant of full GST-APE2)”: the “exonuclease activity on FAM-labeled gapped dsDNA, purified proteins in vitro” value is given as “the gapped dsDNA structure was still resected by C470A APE2 or F486A-Y487A APE2 to some extent similar to WT APE2 with the presence of WT PCNA”.

On to “F486A-Y487A GST-APE2 (mutant of full GST-APE2)”, for which the “exonuclease activity on FAM-labeled gapped dsDNA, purified proteins in vitro” value is listed as “the gapped dsDNA structure was still resected by C470A APE2 or F486A-Y487A APE2 to some extent similar to WT APE2 with the presence of WT PCNA”.
